Experimental data reported in article doi:10.1101/2021.10.18.464900 (bioRxiv, 2021).

Key:
[1] = target: T1, SARS-CoV-2 S protein trimer (Trimer) (SARS-CoV-2, Wuhan/reference, stabilised); assay: cryo-EM structure
[2] = target: T1, SARS-CoV-2 S protein trimer (Trimer); assay: SPR
[3] = target: T2, soluble RBD of SARS-CoV-2 S protein (REF / Wuhan-1 variant) (SARS-CoV-2, UniProt P0DTC2); assay: SPR
[4] = target: RBD (Wuhan) expressed on the surface of HEK-293T cells (SARS-CoV-2, Wuhan, UniProt P0DTC2); assay: flow cytometry on cells
[5] = target: RBD of SARS-CoV-2 S protein, Alpha (UK) variant (SARS-CoV-2, Alpha (B.1.1.7, UK) variant, strain); assay: ELISA
[6] = target: RBD of SARS-CoV-2 S protein, Beta (SA) variant (SARS-CoV-2, Beta (B.1.351, SA), strain); assay: ELISA
[7] = target: T2, soluble RBD of SARS-CoV-2 S protein …; assay: ELISA

Binder | stoichiometry N [1] | kon [2] | fold faster on-rate to RBD than to Trimer [3] | other results
IMM20184 Fab (Fab, V domains shown) VH: EVQLVESGGGLVQPGGSLRLSCSASGFTFSSFWMSWVRQAPGKGLEWVATIREDGSEKYYVDSVKGRFSISRDNAKNSLYLQMNSLRAEDTAVYYCARSKWLRGSFDYWGQGTLVTVSS VL: NFMLTQPHSVSESPGKTVTISCTRRSGSIASNYVQWYQQRPGSAPTTVIYEDNQRPSGVPDRFSGSIDSSSNSASLTISGLQTEDEADYYCQSYDSSNPPGASWVFGGGTKLTVL | 3 Fab:Trimer |  |  | 
IMM20184 (antibody, V domains shown) VH: EVQLVESGGGLVQPGGSLRLSCSASGFTFSSFWMSWVRQAPGKGLEWVATIREDGSEKYYVDSVKGRFSISRDNAKNSLYLQMNSLRAEDTAVYYCARSKWLRGSFDYWGQGTLVTVSS VL: NFMLTQPHSVSESPGKTVTISCTRRSGSIASNYVQWYQQRPGSAPTTVIYEDNQRPSGVPDRFSGSIDSSSNSASLTISGLQTEDEADYYCQSYDSSNPPGASWVFGGGTKLTVL |  | > 29500 M⁻¹ s⁻¹ | 17 fold | koff [2]: 0.00023 s⁻¹; koff [3]: 0.0013 s⁻¹
IMM20190 (antibody, V domains shown) VH: EVQLVESGGGLVQPGGSLRLSCSASGFTVSSNYMSWVRQAPRKGLEWVSVIYAGGSTFYADSVKGRFTISRDNSKNTLLLQMNSLRAEDTAVYYCARDRGGYLDYWGQGTLVTVSS VL: DIQMTQSPSSLSASVGDRVTITCRASQGISNYLAWYQQKPGKVPKLLIYAASTLQSGVPSRFSGSGSGTDFTLTISSLQPEDVATYYCQKYNSAPGLTFGGGTKVEIK |  | > 29500 M⁻¹ s⁻¹ |  | binding result [4]: binds; binding result [3]: binds
IMM20190 Fab (Fab, V domains shown) VH: EVQLVESGGGLVQPGGSLRLSCSASGFTVSSNYMSWVRQAPRKGLEWVSVIYAGGSTFYADSVKGRFTISRDNSKNTLLLQMNSLRAEDTAVYYCARDRGGYLDYWGQGTLVTVSS VL: DIQMTQSPSSLSASVGDRVTITCRASQGISNYLAWYQQKPGKVPKLLIYAASTLQSGVPSRFSGSGSGTDFTLTISSLQPEDVATYYCQKYNSAPGLTFGGGTKVEIK | 3 Fab:Trimer |  |  | 
IMM20253 (antibody, V domains shown) VH: QVQLVESGGGVVQPGRSLRLSCTASGFTFSTYGMHWVRQAPGKGLEWVAVISYDGSSKHYAESVKGRFTISRDNSNNTLYLQMNRLRAEDTAVYYCARDGQPPGWGNYFDYWGQGTLVTVAS VL: SYVLTQPPSVSVAPGKTARITCGGNGIGSKSVYWYQQKPGQAPEVVVYDDSDRPSGIPERFSGSNSGNTATLTISRVEAGDEADYYCQVWDSSSDPWVFGGGTKLTVL |  | > 29500 M⁻¹ s⁻¹ | 19 fold | percent inhibition of ACE2 binding [5]: ≤ 40%; percent inhibition of ACE2 binding [6]: ≤ 40%; percent inhibition of ACE2 binding [7]: ≤ 40%
IMM20253 Fab (Fab, V domains shown) VH: QVQLVESGGGVVQPGRSLRLSCTASGFTFSTYGMHWVRQAPGKGLEWVAVISYDGSSKHYAESVKGRFTISRDNSNNTLYLQMNRLRAEDTAVYYCARDGQPPGWGNYFDYWGQGTLVTVAS VL: SYVLTQPPSVSVAPGKTARITCGGNGIGSKSVYWYQQKPGQAPEVVVYDDSDRPSGIPERFSGSNSGNTATLTISRVEAGDEADYYCQVWDSSSDPWVFGGGTKLTVL | 1 Fab:Trimer |  |  | 
